Measured values reported in FireProtDB (doi:10.1038/s41598-020-57873-3).

B1: N142P|I144P, Q8GB52 (parent)
chain: MLKKVLSCCIAATFGIYSASSLAQSSVINSTENSQQPIAPLVLASSDDAITDRYIVVLKQPQMLMNDAAGLQQFTQQTVGLMANSFSIKTDDVFDSSIIGFVANLDALQLKQLRRDSRVEYIEQDQILSIDPVVSNEAVQSNAIWGLDRIDQRNLPLDRNYNANFDGFGVTAYVIDTGVNNNHEEFGGRSVSGYDFVDNDADSSDCNGHGTHVAGTIGGSQYGVAKNVNIVGVRVLSCSGSGTTSGVISGVDWVAQNASGPSVANMSLGGGQSTALDSAVQGAIQSGVSFMLAAGNSNADACNTSPARVPSGVTVGSTTSSDSRSSFSNWGSCVDLFAPGSQIKSAWYDGGYKTISGTSMATPHVAGVAALYLQENNGLTPLQLTGLLNSRASENKVSDTRGTTNKLLYSLADSGCEPDCGGPTPGPDPDGKLVSGVPVNGLSGSRGQKDYFYMDLQQGQQLTVVTIGGTGDADLYLRFGDKPTLNTWDCRPYRSGNSETCTVNVTQSGRYHVMLNAYSAYSGLTLQANF

Variants of: B1
Conditions: Vibrio sp. PA-44, pH 8.6, Thermal, structure 1SH7, whole UniProt chain shown
[1] = CD, Glycine 25 mM, NaCl and CaCl2 100 mM and 15 mM
[2] = CD, glycine, Nacl / Cacl2 100000 / 15000, transition: 2, reversible: no
[3] = DSC, Glycine 25 mM, NaCl and CaCl2 100 mM and 15 mM
[4] = DSC, glycine, Nacl / Cacl2 100000 / 15000, transition: 2, reversible: no

Row | Variant | Tm [1] [°C] | change of melting temperature, mutant - wild type (higher = more stable) [1] [°C] | Tm [2] [°C] | change of melting temperature, mutant - wild type (higher = more stable) [2] [°C] | Tm [3] [°C] | change of melting temperature, mutant - wild type (higher = more stable) [3] [°C] | unfolding enthalpy (calorimetric) [3] [kcal/mol] | Tm [4] [°C] | change of melting temperature, mutant - wild type (higher = more stable) [4] [°C] | unfolding enthalpy (calorimetric) [4] [kcal/mol]
1 | MLKKVLSCCIAATFGIYSASSLAQSSVINSTENSQQPIAPLVLASSDDAITDRYIVVLKQPQMLMNDAAGLQQFTQQTVGLMANSFSIKTDDVFDSSIIGFVANLDALQLKQLRRDSRVEYIEQDQILSIDPVVSNEAVQSPAPWGLDRIDQRNLPLDRNYNANFDGFGVTAYVIDTGVNNNHEEFGGRSVSGYDFVDNDADSSDCNGHGTHVAGTIGGSQYGVAKNVNIVGVRVLSCSGSGTTSGVISGVDWVAQNASGPSVANMSLGGGQSTALDSAVQGAIQSGVSFMLAAGNSNADACNTSPARVPSGVTVGSTTSSDSRSSFSNWGSCVDLFAPGSQIKSAWYDGGYKTISGTSMATPHVAGVAALYLQENNGLTPLQLTGLLNSRASENKVSDTRGTTNKLLYSLADSGCEPDCGGPTPGPDPDGKLVSGVPVNGLSGSRGQKDYFYMDLQQGQQLTVVTIGGTGDADLYLRFGDKPTLNTWDCRPYRSGNSETCTVNVTQSGRYHVMLNAYSAYSGLTLQANF [N142P I144P] | 67.8 | 5.9 | 67.8 | 5.9 | 72 | 8.1 | 155 | 72 | 8.1 | 154
2 | MLKKVLSCCIAATFGIYSASSLAQSSVINSTENSQQPIAPLVLASSDDAITDRYIVVLKQPQMLMNDAAGLQQFTQQTVGLMANSFSIKTDDVFDSSIIGFVANLDALQLKQLRRDSRVEYIEQDQILSIDPVVSNEAVQSPAIWGLDRIDQRNLPLDRNYNANFDGFGVTAYVIDTGVNNNHEEFGGRSVSGYDFVDNDADSSDCNGHGTHVAGTIGGSQYGVAKNVNIVGVRVLSCSGSGTTSGVISGVDWVAQNASGPSVANMSLGGGQSTALDSAVQGAIQSGVSFMLAAGNSNADACNTSPARVPSGVTVGSTTSSDSRSSFSNWGSCVDLFAPGSQIKSAWYDGGYKTISGTSMATPHVAGVAALYLQENNGLTPLQLTGLLNSRASENKVSDTRGTTNKLLYSLADSGCEPDCGGPTPGPDPDGKLVSGVPVNGLSGSRGQKDYFYMDLQQGQQLTVVTIGGTGDADLYLRFGDKPTLNTWDCRPYRSGNSETCTVNVTQSGRYHVMLNAYSAYSGLTLQANF [N142P] | 64.8 | 2.9 |  |  | 66.8 | 2.9 | 128 | 66.8 | 2.9 | 127
3 | MLKKVLSCCIAATFGIYSASSLAQSSVINSTENSQQPIAPLVLASSDDAITDRYIVVLKQPQMLMNDAAGLQQFTQQTVGLMANSFSIKTDDVFDSSIIGFVANLDALQLKQLRRDSRVEYIEQDQILSIDPVVSNEAVQSPAPWGLDRIDQRNLPLDRNYNANFDGFGVTAYVIDTGVNNNHEEFGGRSVSGYDFVDNDADSSDCNGHGTHVAGTIGGSQYGVAKNVNIVGVRVLSCSGSGTTSGVISGVDWVAQNASGPSVANMSLGGGQSTALDSAVQGAIQSGVSFMLAAGNSNADACNTSPARVPSGVTVGSTTSSDSRSSFSNWGSCVDLFAPGSQIKSAWYDGGYKTISGTSMATPHVAGVAALYLQENPGLTPLQLTGLLNSRASENKVSDTRGTTNKLLYSLADSGCEPDCGGPTPGPDPDGKLVSGVPVNGLSGSRGQKDYFYMDLQQGQQLTVVTIGGTGDADLYLRFGDKPTLNTWDCRPYRSGNSETCTVNVTQSGRYHVMLNAYSAYSGLTLQANF [N142P I144P N377P] | 68.8 | 6.9 | 68.8 | 6.9 | 72 | 8.1 | 163 | 72 | 8.1 | 162
